Data from patent US9803013B2, “Biological materials and uses thereof” (BioInvent International AB, priority 2005, dated 2017).

How the values were obtained:
MDA MB 435 = test: IgG binding to tumour cell line, flow cytometry MFI; parameters: species or system human; details: MDA MB 435, Melanoma
Excerpt: The antigen distribution of human antibody targeted antigens, mainly for B11, on different carcinoma cell lines was investigated. Cells (MCF-7 and MDA MB 435S breast carcinoma, JAR and JEG-3 chorio-carcinoma, A549 lung carcinoma, TCC-SUP urinary bladder carcinoma, MDA MB 435 melanoma, HPAC, PANC-1 and BxPC-3 pancreatic carcinoma, PC-3 and DU145 prostate carcinoma, LS174 T, CaCo2, and Lovo colorectal carcinoma, and THP-1 monocytic leukaemia cells), were washed in PBS, and resuspended at 4×10^6 cells/ml in Complete Medium (200,000 cells/50 […] sample). […] Cells were incubated with either of the antibodies for 1 hour on ice, washed by resuspension in PBS/BSA 0.5%, centrifuged at 1200 rpm for 5 min, and complete aspiration of the supernatants was undertaken. Cells were incubated with PE-conjugated Goat F(ab′)2 anti-Human IgG (Caltag Laboratories, Cat no: H10104), diluted 1/50 in PBS/BSA 0.5%, for 30 min, on ice. Following resuspension of in 300 μl PBS/BSA 0.5%, cells were analysed for IgG binding using a FACScan instrument.

Ramos cells = test: Flow-cytometric IgG binding, Ramos cells mixed with peripheral blood leukocytes; parameters: species or system human
Excerpt: (§1) Washing was repeated twice.

monocyte cells = test: as above; parameters: species or system human
Excerpt: as §1

[1] = test system: other monitored peripheral blood leukocyte subsets; test: as above; parameters: species or system human
Excerpt: as §1

[2] = test system: peripheral blood B lymphocytes; test: as above; parameters: species or system human
Excerpt: as §1

ICAM-2 = biological target: T1, ICAM-2 (Homo sapiens, UniProt P13598); test: Binding to recombinant ICAM family protein
T1 sequence (P13598 25-275): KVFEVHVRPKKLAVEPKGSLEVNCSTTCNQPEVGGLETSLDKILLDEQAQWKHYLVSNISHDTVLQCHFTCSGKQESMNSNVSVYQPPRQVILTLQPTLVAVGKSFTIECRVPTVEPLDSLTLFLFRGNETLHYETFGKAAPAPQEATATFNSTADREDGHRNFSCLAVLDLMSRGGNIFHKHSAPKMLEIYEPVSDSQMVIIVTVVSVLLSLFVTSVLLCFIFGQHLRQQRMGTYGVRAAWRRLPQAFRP

U266 myeloma cells = test: NK-cell deficient NOD/Shi-scid/IL-2Rγ−/− mouse model; type: in vivo; details: U266 grafted to NOD/Shi-scid/IL-2Rγ−/− mice
Description: (FIG. 20F) Animal survival following BI-505 or control antibody treatment in a disseminated NK-cell deficient NOD/Shi-scid/IL-2Rγ^−/− mouse model comprising i.v. grafted U266 myeloma cells. ***p<0.001.
Six-eight weeks-old female NOD/Shi-scid IL-2Rγ^−/− mice were obtained from Taconic, Denmark. Five million (5×10^6) RPMI-8226 or U266 tumor cells in 200 μL of RPMI 1640 were intravenously injected into the caudal vein (day 0). The tumor cell injection was performed 2 hr after whole body irradiation of mice (1.5 Gy, Cesium 137, IBL 637). At day 4, mice were randomized into 6 groups and treatment was initiated according to the schedule below.

human FcγRIIIa = biological target: T2, human FcγRIIIa (Homo sapiens, UniProt P08637); test: BiaCore analysis of BI-505 Fc-variant binding to FcγR
T2 construct: made in house; host or cells: HEK293E cells (transient)
T2 sequence (P08637 17-254): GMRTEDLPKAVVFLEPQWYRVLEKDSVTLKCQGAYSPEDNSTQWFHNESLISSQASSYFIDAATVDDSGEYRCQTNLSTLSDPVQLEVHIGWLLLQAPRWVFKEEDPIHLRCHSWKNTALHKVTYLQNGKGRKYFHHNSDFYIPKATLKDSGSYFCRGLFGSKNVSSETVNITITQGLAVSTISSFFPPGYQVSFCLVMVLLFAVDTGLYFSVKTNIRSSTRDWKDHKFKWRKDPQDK
Description: (FIG. 20C) BiaCore analysis of BI-505 Fc-variant antibodies binding to human FcγRIIIa.
His-tagged human FcγRIIIa and mouse FcγRIV were transiently expressed in HEK293E cells, purified using Ni-NTA chromatography, and characterized by SDS-PAGE and/or Biacore. Surface plasmon resonance (SPR) measurements were performed using a Biacore 3000 instrument. Goat F(ab)′2 α-human-F(ab)′2 fragments (Jackson Laboratories) were immobilized with a CM-5 chip using a standard amine coupling protocol. BI-505 (IgG1) and IgG4 or IgG1 297Q variants of BI-505 were diluted to 15 and 60 μg/mL respectively and added to the surface at 10 μL/min for 3 min. His-tagged human FcγRIIIa or mouse FcγRIV was pre-incubated with an α-HIS antibody (R&D Systems) at a 2:1 molar ratio before addition to the chip surface, 30 μL/min, for 1 min. After each cycle the surface was regenerated twice with glycine buffer pH 1.7.

[3] = test system: human peripheral blood B cells; test: Direct cytotoxic effects (PCD, ADCC, CDC) on normal cells; type: cell-based; details: antibody cross-linked or not
Description: All experiments were performed in triplicate.
Target cells were harvested as described above (under ADCC heading) and incubated with antibodies at 5 μg/mL for 60 min on ice and then washed. Human serum, normal or heat-inactivated (Sigma, Sweden), was added to tubes and the samples were incubated for 2 hr at 37° C. After completion of incubation, ToPo-Pro-3 (Invitrogen) was added at a final concentration of 0.3 μM and cells were analyzed for membrane permeabilization using flow cytometry.

[4] = Limited safety studies in rat, rabbit and monkey; type: in vivo

B1: B11: fully human IgG1 antibody specific for ICAM-1; VH and VL sequences of FIG. 10 (SEQ ID NOs. 6 and 8) (antibody, listed as Homo sapiens, V domains shown)
VH: EVQLLESGGGLVQPGGSLRLSCAASGFTFSNAWMSWVRQAPGKGLEWVAFIWYDGSNKYYADSVKGRFTISRDNSKNTLYLQMNSLRAEDTAVYYCARYSGWYFDYWGQGTLVTVSS
VL: QSVLTQPPSASGTPGQRVTISCTGSSSNIGAGYDVHWYQQLPGTAPKLLIYDNNNRPSGVPDRFSGSKSGTSASLAISGLRSEDEADYYCQSYDSSLSAWLFGGGTKLTVLG
MFI (MDA MB 435): 4000
MFI (Ramos cells): 654
concentration at which binding peaked (Ramos cells): 0.1 µg/mL
MFI (monocyte cells): 176
binding [1]: negative
MFI [2]: 78
binding to recombinant protein (ICAM-2): not to ICAM-2 or ICAM-3
antitumor activity (U266 myeloma cells): significant antitumor activity
binding to human FcγR (human FcγRIIIa): bound to human FcγR
cell death in normal cells [3]: did not induce cell death
toxicity [4]: no compound-related off-target toxicity
